Laboratory results as given in article PMC8440396 (Nature cell biology, 2021).

T1: Flag-CYLD^4A (K767A/K768A/L773A/L775A) (human, UniProt Q9NQC7 1-956, K767A | K768A | L773A | L775A)
T1 sequence: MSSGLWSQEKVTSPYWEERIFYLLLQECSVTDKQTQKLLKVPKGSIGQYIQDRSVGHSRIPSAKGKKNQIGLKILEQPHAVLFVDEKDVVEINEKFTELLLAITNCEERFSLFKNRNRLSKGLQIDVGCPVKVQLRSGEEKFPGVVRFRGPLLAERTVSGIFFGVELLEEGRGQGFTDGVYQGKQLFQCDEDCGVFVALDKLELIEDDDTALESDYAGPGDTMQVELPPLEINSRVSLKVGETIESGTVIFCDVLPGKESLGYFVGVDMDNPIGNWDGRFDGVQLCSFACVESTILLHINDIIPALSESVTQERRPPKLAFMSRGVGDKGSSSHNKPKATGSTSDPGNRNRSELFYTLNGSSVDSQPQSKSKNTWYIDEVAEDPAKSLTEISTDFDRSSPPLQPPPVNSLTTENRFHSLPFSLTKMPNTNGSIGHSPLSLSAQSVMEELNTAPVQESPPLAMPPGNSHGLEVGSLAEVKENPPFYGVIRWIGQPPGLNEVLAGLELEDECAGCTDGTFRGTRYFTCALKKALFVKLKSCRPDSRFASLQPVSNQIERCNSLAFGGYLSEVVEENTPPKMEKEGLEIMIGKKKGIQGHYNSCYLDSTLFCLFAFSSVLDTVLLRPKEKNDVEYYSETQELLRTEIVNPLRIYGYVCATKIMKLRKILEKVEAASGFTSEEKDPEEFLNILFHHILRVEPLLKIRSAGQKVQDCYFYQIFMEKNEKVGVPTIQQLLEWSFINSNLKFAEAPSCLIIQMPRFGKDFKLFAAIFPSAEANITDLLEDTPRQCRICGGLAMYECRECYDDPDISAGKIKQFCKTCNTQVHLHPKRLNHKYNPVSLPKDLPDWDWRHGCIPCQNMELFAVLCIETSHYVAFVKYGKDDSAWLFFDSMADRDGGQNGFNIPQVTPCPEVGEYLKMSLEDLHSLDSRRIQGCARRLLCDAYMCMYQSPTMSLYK

T2: Flag-CYLD (human, UniProt Q9NQC7 1-956)
T2 sequence: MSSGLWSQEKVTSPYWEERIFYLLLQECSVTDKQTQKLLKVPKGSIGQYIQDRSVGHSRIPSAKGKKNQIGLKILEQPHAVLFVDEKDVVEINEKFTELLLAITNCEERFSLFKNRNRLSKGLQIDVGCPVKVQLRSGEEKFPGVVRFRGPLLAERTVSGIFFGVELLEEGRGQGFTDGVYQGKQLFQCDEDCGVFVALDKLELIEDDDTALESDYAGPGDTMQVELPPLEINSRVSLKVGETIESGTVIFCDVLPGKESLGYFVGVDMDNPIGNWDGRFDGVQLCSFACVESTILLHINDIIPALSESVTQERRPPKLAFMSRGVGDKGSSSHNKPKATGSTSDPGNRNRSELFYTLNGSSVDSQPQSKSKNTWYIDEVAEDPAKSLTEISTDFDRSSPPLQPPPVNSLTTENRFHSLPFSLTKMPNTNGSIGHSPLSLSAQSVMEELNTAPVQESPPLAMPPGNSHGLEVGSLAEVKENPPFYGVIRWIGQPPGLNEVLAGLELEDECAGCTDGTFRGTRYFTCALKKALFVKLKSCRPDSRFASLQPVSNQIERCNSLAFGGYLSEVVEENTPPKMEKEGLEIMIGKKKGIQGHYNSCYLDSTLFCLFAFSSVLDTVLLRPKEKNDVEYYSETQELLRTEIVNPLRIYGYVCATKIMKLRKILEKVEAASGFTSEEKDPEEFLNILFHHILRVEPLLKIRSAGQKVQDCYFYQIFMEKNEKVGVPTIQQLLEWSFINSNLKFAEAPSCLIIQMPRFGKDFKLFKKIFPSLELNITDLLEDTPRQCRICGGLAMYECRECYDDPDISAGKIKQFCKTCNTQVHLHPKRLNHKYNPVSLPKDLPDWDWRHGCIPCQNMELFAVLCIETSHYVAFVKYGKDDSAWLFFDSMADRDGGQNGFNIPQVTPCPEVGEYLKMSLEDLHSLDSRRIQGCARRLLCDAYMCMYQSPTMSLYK

T3: Flag-TRIM15 (human, UniProt Q9C019 1-465)
T3 sequence: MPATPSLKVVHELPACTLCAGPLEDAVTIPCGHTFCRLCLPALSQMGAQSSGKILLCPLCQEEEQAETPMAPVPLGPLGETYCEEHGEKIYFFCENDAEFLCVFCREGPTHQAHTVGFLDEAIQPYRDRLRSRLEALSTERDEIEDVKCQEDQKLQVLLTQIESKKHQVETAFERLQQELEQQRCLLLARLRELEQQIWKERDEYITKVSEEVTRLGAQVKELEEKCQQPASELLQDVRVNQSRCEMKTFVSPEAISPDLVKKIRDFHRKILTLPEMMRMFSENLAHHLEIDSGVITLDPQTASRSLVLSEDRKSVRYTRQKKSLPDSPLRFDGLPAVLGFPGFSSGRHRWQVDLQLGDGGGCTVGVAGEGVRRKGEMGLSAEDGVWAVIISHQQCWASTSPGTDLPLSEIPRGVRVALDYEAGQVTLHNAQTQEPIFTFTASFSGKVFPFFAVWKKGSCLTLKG


Columns and labels:
Test in all cases: pull-down
[1] = target: T1, Flag-CYLD^4A (K767A/K768A/L773A/L775A)
[2] = target: T2, Flag-CYLD
[3] = target: T3, Flag-TRIM15
[4] = target: Flag-ERK1^K302R (human, UniProt P27361 1-379, K302R)
[5] = target: Flag-ERK1 (human, UniProt P27361 1-379)

Row | binding result [1] | binding result [2] | binding result [3] | binding result [4] | binding result [5] | Binder
1 | binds | binds | binds |  |  | GST-ERK1 (enzyme) MAAAAAQGGGGGEPRRTEGVGPGVPGEVEMVKGQPFDVGPRYTQLQYIGEGAYGMVSSAYDHVRKTRVAIKKISPFEHQTYCQRTLREIQILLRFRHENVIGIRDILRASTLEAMRDVYIVQDLMETDLYKLLKSQQLSNDHICYFLYQILRGLKYIHSANVLHRDLKPSNLLINTTCDLKICDFGLARIADPEHDHTGFLTEYVATRWYRAPEIMLNSKGYTKSIDIWSVGCILAEMLSNRPIFPGKHYLDQLNHILGILGSPSQEDLNCIINMKARNYLQSLPSKTKVAWAKLFPKSDSKALDLLDRMLTFNPNKRITVEEALAHPYLEQYYDPTDEPVAEEPFTFAMELDDLPKERLKELIFQETARFQPGVLEAP
2 |  |  |  | binds | binds | GST-ELK-1 (aa 307-428) (domain or fragment) ISQPQKGRKPRDLELPLSPSLLGGPGPERTPGSGSGSGLQAPGPALTPSLLPTHTLTPVLLTPSSLPPSIHFWSTLSPIAPRSPAKLSFQFPSSGSAQVHIPSISVDGLSTPVVLSPGPQKP
